From US20190359687A1 (Bayer, published 2019)

T1: human glycophorin A on human red blood cells (human, UniProt P02724 20-150)
T1 construct: whole, on cells; also called human GPA; huGPA
T1 sequence (looked up): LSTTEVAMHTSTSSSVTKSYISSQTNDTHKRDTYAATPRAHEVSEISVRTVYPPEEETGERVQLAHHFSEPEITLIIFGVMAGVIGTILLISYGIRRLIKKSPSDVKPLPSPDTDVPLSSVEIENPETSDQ

B1: TPP-9901 FVIII-scFv fusion protein (other)
chain: ATRRYYLGAVELSWDYMQSDLGELPVDARFPPRVPKSFPFNTSVVYKKTLFVEFTDHLFNIAKPRPPWMGLLGPTIQAEVYDTVVITLKNMASHPVSLHAVGVSYWKASEGAEYDDQTSQREKEDDKVFPGGSHTYVWQVLKENGPMASDPLCLTYSYLSHVDLVKDLNSGLIGALLVCREGSLAKEKTQTLHKFILLFAVFDEGKSWHSETKNSLMQDRDAASARAWPKMHTVNGYVNRSLPGLIGCHRKSVYWHVIGMGTTPEVHSIFLEGHTFLVRNHRQASLEISPITFLTAQTLLMDLGQFLLFCHISSHQHDGMEAYVKVDSCPEEPQLRMKNNEEAEDYDDDLTDSEMDVVRFDDDNSPSFIQIRSVAKKHPKTWVHYIAAEEEDWDYAPLVLAPDDRSYKSQYLNNGPQRIGRKYKKVRFMAYTDETFKTREAIQHESGILGPLLYGEVGDTLLIIFKNQASRPYNIYPHGITDVRPLYSRRLPKGVKHLKDFPILPGEIFKYKWTVTVEDGPTKSDPRCLTRYYSSFVNMERDLASGLIGPLLICYKESVDQRGNQIMSDKRNVILFSVFDENRSWYLTENIQRFLPNPAGVQLEDPEFQASNIMHSINGYVFDSLQLSVCLHEVAYWYILSIGAQTDFLSVFFSGYTFKHKMVYEDTLTLFPFSGETVFMSMENPGLWILGCHNSDFRNRGMTALLKVSSCDKNTGDYYEDSYEDISAYLLSKNNAIEPRSFSQNGGGGSTGGTGGSSGGGTGSGGGGTGGSGGTDIQLTQSPSFLSASVGDRVTITCRASSSVRYIYWFQQKPGKAPKLLIYATSFRQSGVPSRFSGSGSGTEYTLTISSLQPEDFATYYCHQRNSFPYTFGQGTKLEIKGGGGSGGGGSGGGGSGGGGSEVQLVQSGAEVKKPGASVKVSCKASGYTFTTYAIHWVRQAPGQGLEWMGYINPSSGYTRYNPKFKGRVTMTRDKSTSTAYMELRSLRSDDTAVYYCWTGTRDYWGQGTTVTVSSGGGGDENQSPRSFQKKTRHYFIAAVERLWDYGMSSSPHVLRNRAQSGSVPQFKKVVFQEFTDGSFTQPLYRGELNEHLGLLGPYIRAEVEDNIMVTFRNQASRPYSFYSSLISYEEDQRQGAEPRKNFVKPNETKTYFWKVQHHMAPTKDEFDCKAWAYFSDVDLEKDVHSGLIGPLLVCHTNTLNPAHGRQVTVQEFALFFTIFDETKSWYFTENMERNCRAPCNIQMEDPTFKENYRFHAINGYIMDTLPGLVMAQDQRIRWYLLSMGSNENIHSIHFSGHVFTVRKKEEYKMALYNLYPGVFETVEMLPSKAGIWRVECLIGEHLHAGMSTLFLVYSNKCQTPLGMASGHIRDFQITASGQYGQWAPKLARLHYSGSINAWSTKEPFSWIKVDLLAPMIIHGIKTQGARQKFSSLYISQFIIMYSLDGKKWQTYRGNSTGTLMVFFGNVDSSGIKHNIFNPPIIARYIRLHPTHYSIRSTLRMELMGCDLNSCSMPLGMESKAISDAQITASSYFTNMFATWSPSKARLHLQGRSNAWRPQVNNPKEWLQVDFQKTMKVTGVTTQGVKSLLTSMYVKEFLISSSQDGHQWTLFFQNGKVKVFQGNQDSFTPVVNSLDPPLLTRYLRIHPQSWVHQIALRMEVLGCEAQDLYGGGSGGGGSGLVPRGSGGGSGGGGSGDIQLTQSPSFLSASVGDRVTITCRASSSVRYIYWFQQKPGKAPKLLIYATSFRQSGVPSRFSGSGSGTEYTLTISSLQPEDFATYYCHQRNSFPYTFGQGTKLEIKGGGGSGGGGSGGGGSGGGGSEVQLVQSGAEVKKPGASVKVSCKASGYTFTTYAIHWVRQAPGQGLEWMGYINPSSGYTRYNPKFKGRVTMTRDKSTSTAYMELRSLRSDDTAVYYCWTGTRDYWGQGTTVTVSS
notes: also called PPB 7855
B2: TPP-9976 FVIII-scFv fusion protein (other)
chain: ATRRYYLGAVELSWDYMQSDLGELPVDARFPPRVPKSFPFNTSVVYKKTLFVEFTDHLFNIAKPRPPWMGLLGPTIQAEVYDTVVITLKNMASHPVSLHAVGVSYWKASEGAEYDDQTSQREKEDDKVFPGGSHTYVWQVLKENGPMASDPLCLTYSYLSHVDLVKDLNSGLIGALLVCREGSLAKEKTQTLHKFILLFAVFDEGKSWHSETKNSLMQDRDAASARAWPKMHTVNGYVNRSLPGLIGCHRKSVYWHVIGMGTTPEVHSIFLEGHTFLVRNHRQASLEISPITFLTAQTLLMDLGQFLLFCHISSHQHDGMEAYVKVDSCPEEPQLRMKNNEEAEDYDDDLTDSEMDVVRFDDDNSPSFIQIRSVAKKHPKTWVHYIAAEEEDWDYAPLVLAPDDRSYKSQYLNNGPQRIGRKYKKVRFMAYTDETFKTREAIQHESGILGPLLYGEVGDTLLIIFKNQASRPYNIYPHGITDVRPLYSRRLPKGVKHLKDFPILPGEIFKYKWTVTVEDGPTKSDPRCLTRYYSSFVNMERDLASGLIGPLLICYKESVDQRGNQIMSDKRNVILFSVFDENRSWYLTENIQRFLPNPAGVQLEDPEFQASNIMHSINGYVFDSLQLSVCLHEVAYWYILSIGAQTDFLSVFFSGYTFKHKMVYEDTLTLFPFSGETVFMSMENPGLWILGCHNSDFRNRGMTALLKVSSCDKNTGDYYEDSYEDISAYLLSKNNAIEPRSFSQNGGGGSTGGTGGSSGGGTGSGGGGTGGSGGTDIQLTQSPSFLSASVGDRVTITCRASSSVRYIYWFQQKPGKAPKLLIYATSFRQSGVPSRFSGSGSGTEYTLTISSLQPEDFATYYCHQRNSFPYTFGQGTKLEIKGGGGSGGGGSGGGGSGGGGSEVQLVQSGAEVKKPGASVKVSCKASGYTFTTYAIHWVRQAPGQGLEWMGYINPSSGYTRYNPKFKGRVTMTRDKSTSTAYMELRSLRSDDTAVYYCWTGTRDYWGQGTTVTVSSGGGGDIQLTQSPSFLSASVGDRVTITCRASSSVRYIYWFQQKPGKAPKLLIYATSFRQSGVPSRFSGSGSGTEYTLTISSLQPEDFATYYCHQRNSFPYTFGQGTKLEIKGGGGSGGGGSGGGGSGGGGSEVQLVQSGAEVKKPGASVKVSCKASGYTFTTYAIHWVRQAPGQGLEWMGYINPSSGYTRYNPKFKGRVTMTRDKSTSTAYMELRSLRSDDTAVYYCWTGTRDYWGQGTTVTVSSGGGGDENQSPRSFQKKTRHYFIAAVERLWDYGMSSSPHVLRNRAQSGSVPQFKKVVFQEFTDGSFTQPLYRGELNEHLGLLGPYIRAEVEDNIMVTFRNQASRPYSFYSSLISYEEDQRQGAEPRKNFVKPNETKTYFWKVQHHMAPTKDEFDCKAWAYFSDVDLEKDVHSGLIGPLLVCHTNTLNPAHGRQVTVQEFALFFTIFDETKSWYFTENMERNCRAPCNIQMEDPTFKENYRFHAINGYIMDTLPGLVMAQDQRIRWYLLSMGSNENIHSIHFSGHVFTVRKKEEYKMALYNLYPGVFETVEMLPSKAGIWRVECLIGEHLHAGMSTLFLVYSNKCQTPLGMASGHIRDFQITASGQYGQWAPKLARLHYSGSINAWSTKEPFSWIKVDLLAPMIIHGIKTQGARQKFSSLYISQFIIMYSLDGKKWQTYRGNSTGTLMVFFGNVDSSGIKHNIFNPPIIARYIRLHPTHYSIRSTLRMELMGCDLNSCSMPLGMESKAISDAQITASSYFTNMFATWSPSKARLHLQGRSNAWRPQVNNPKEWLQVDFQKTMKVTGVTTQGVKSLLTSMYVKEFLISSSQDGHQWTLFFQNGKVKVFQGNQDSFTPVVNSLDPPLLTRYLRIHPQSWVHQIALRMEVLGCEAQDLY
notes: also called PPB 7998

Key:
[1] = target: T1, human glycophorin A on human red blood …; assay: partition to human RBC, human HemA plasma, 120 min
Method: (§1) The supernatant containing plasma, platelets and white blood cells was discarded and the red blood cell pellet was resuspended in 10 pellet volumes of PBS (50 mM Phosphate buffer, pH7.4, 150 mM NaCl). The red blood cells were then pelleted by slow speed centrifugation and the red blood cells re-suspended in 10 volumes of PBS. This washing step was repeated 4 more times and the red blood cells finally resuspended in a volume of plasma from Hemophilia patients with less than 1% of normal levels of FVIII (GeorgeKing Bio-Medical, Overland Park, Kans.) to generate a total volume equal to the initial blood volume such that the RBC density was equal to that of normal whole blood. BDD and RBC targeted FVIII molecules were then spiked into RBC suspension in HemA plasma at 1 IU/mL, and incubated at room temperature for 2-3 hours with gentle rotation. […] An additional control was performed in which BDD or RBC targeted FVIII molecules were added at 11U/ml into the same human hemophilia A plasma and incubated for 5 minutes and 180 mins. These samples were used to determine the input FVIII activity in the presence of plasma which was used to calculate the percentage of the molecule that was bound to RBC. All plasma samples were then assayed together for FVIII activity using the Coatest SP assay (DiaPharma, Columbus, Ohio). The assay was performed following the manufacturer's instructions in a 96-well plate format. […] The plate was incubated at 37° C. for 10 minutes with shaking between each reagent addition. […] The amount of FVIII activity in the plasma reflects the amount of unbound FVIII. The FVIII activity of the same molecule spiked in to Hemophilia A plasma alone (no RBC) and incubated for 5 minutes was normalized to 100%.

[2] = target: T1, human glycophorin A on human red blood …; assay: partition to human RBC, human HemA plasma, 1 min
Method: as §1

[3] = target: T1, human glycophorin A on human red blood …; assay: partition to human RBC, vWF deficient plasma, 60 min
[4] = target: T2, Cynomolgus monkey glycophorin A on Cynomolgus monkey red blood cells (Cynomolgus monkey); assay: partition to Cyno RBC, human HemA plasma, 15 min;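 further: FVIII fusion spiked at 1 IU/mL into RBC suspension at whole-blood density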
T2 construct: whole, on cells; also called Cyno GPA; Cyno RBC
Method: (§2) To evaluate partition to cynomolgus monkey or human red blood cells, whole blood was draw from Cynomolgus monkey or normal human volunteers in to anticoagulant with 4% sodium citrate (Sigma, St Louis, Mo.). The red blood cells were purified by layering the whole blood on to ficoll followed by low speed centrifugation. The supernatant containing plasma, platelets and white blood cells was discarded and the red blood cell pellet was resuspended in 10 pellet volumes of PBS (50 mM Phosphate buffer, pH7.4, 150 mM NaCl). The red blood cells were then pelleted by slow speed centrifugation and the red blood cells re-suspended in 10 volumes of PBS. This washing step was repeated 4 more times and the red blood cells finally resuspended in a volume of plasma from Hemophilia patients with less than 1% of normal levels of FVIII (GeorgeKing Bio-Medical, Overland Park, Kans.) to generate a total volume equal to the initial blood volume such that the RBC density was equal to that of normal whole blood. BDD and RBC targeted FVIII molecules were then spiked into RBC suspension in HemA plasma at 1 IU/mL, and incubated at room temperature for 2-3 hours with gentle rotation. […] An additional control was performed in which BDD or RBC targeted FVIII molecules were added at 11U/ml into the same human hemophilia A plasma and incubated for 5 minutes and 180 mins. These samples were used to determine the input FVIII activity in the presence of plasma which was used to calculate the percentage of the molecule that was bound to RBC. All plasma samples were then assayed together for FVIII activity using the Coatest SP assay (DiaPharma, Columbus, Ohio). The assay was performed following the manufacturer's instructions in a 96-well plate format. […] The plate was incubated at 37° C. for 10 minutes with shaking between each reagent addition.

[5] = target: T1, human glycophorin A on human red blood …; assay: partition to human RBC, vWF deficient plasma, 5 min
[6] = target: T1, human glycophorin A on human red blood …; assay: partition to human RBC, human HemA plasma, 15 min
[7] = target: T2, Cynomolgus monkey glycophorin A on …; assay: partition to Cyno RBC, human HemA plasma, 5 min;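 further: FVIII fusion spiked at 1 IU/mL into RBC suspension at whole-blood density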
Method: as §2

[8] = target: T2, Cynomolgus monkey glycophorin A on …; assay: partition to Cyno RBC, human HemA plasma, 30 min;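 further: FVIII fusion spiked at 1 IU/mL into RBC suspension at whole-blood density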
[9] = target: T1, human glycophorin A on human red blood …; assay: partition to human RBC, human HemA plasma, 60 min
[10] = target: T2, Cynomolgus monkey glycophorin A on …; assay: partition to Cyno RBC, human HemA plasma, 60 min;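 further: FVIII fusion spiked at 1 IU/mL into RBC suspension at whole-blood density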
Method: as §2

[11] = target: T1, human glycophorin A on human red blood …; assay: partition to human RBC, vWF deficient plasma, 120 min
[12] = target: T1, human glycophorin A on human red blood …; assay: partition to human RBC, human HemA plasma, 120 min; remark: listed apart in the source
[13] = target: T1, human glycophorin A on human red blood …; assay: partition to human RBC, vWF deficient plasma, 30 min
[14] = target: T1, human glycophorin A on human red blood …; assay: partition to human RBC, human HemA plasma, 5 min
Method: as §1

[15] = target: T2, Cynomolgus monkey glycophorin A on …; assay: partition to Cyno RBC, human HemA plasma, 120 min;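 further: FVIII fusion spiked at 1 IU/mL into RBC suspension at whole-blood density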
Method: as §2

[16] = target: T2, Cynomolgus monkey glycophorin A on …; assay: partition to Cyno RBC, human HemA plasma, 1 min;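 further: FVIII fusion spiked at 1 IU/mL into RBC suspension at whole-blood density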
[17] = target: T1, human glycophorin A on human red blood …; assay: partition to human RBC, human HemA plasma, 30 min
Method: as §1

[18] = target: T1, human glycophorin A on human red blood …; assay: partition to human RBC, vWF deficient plasma, 15 min
[19] = target: T1, human glycophorin A on human red blood …; assay: partition to human RBC, vWF deficient plasma, 1 min

Binder | percentage bound to human RBC [1] [%] | percentage bound to human RBC [2] [%] | percentage bound to human RBC [3] [%] | % bound to Cyno RBC [4] [%] | percentage bound to human RBC [5] [%] | percentage bound to human RBC [6] [%] | % bound to Cyno RBC [7] [%] | % bound to Cyno RBC [8] [%] | percentage bound to human RBC [9] [%] | % bound to Cyno RBC [10] [%] | percentage bound to human RBC [11] [%] | percentage bound to human RBC [12] [%] | percentage bound to human RBC [13] [%] | percentage bound to human RBC [14] [%] | % bound to Cyno RBC [15] [%] | % bound to Cyno RBC [16] [%] | percentage bound to human RBC [17] [%] | percentage bound to human RBC [18] [%] | percentage bound to human RBC [19] [%]
B1 | 86.7 | 31.4 | 64.3 | 54 | 44.9 | 71.5 | 46 | 58 | 84.1 | 68 | 72.7 | 86.7 | 57.3 | 53.8 | 71 | 26.4 | 78.9 | 53.8 | 26
B2 | 95.2 | 55.2 |  | 75.6 |  | 86.6 | 65.7 | 78.1 | 93.5 | 84.5 |  | 95.2 |  | 74.3 | 86.8 | 53.4 | 90.4 |  | 
